# Measurements: patent US20250257137A1 (IMBIOLOGICS, published 2025)
# Like-named read-outs stand apart in the source and are kept apart here.
# T1: Fcα/µ receptor (R&D systems) (UniProt Q8WWV6 17-450)
# T1 sequence: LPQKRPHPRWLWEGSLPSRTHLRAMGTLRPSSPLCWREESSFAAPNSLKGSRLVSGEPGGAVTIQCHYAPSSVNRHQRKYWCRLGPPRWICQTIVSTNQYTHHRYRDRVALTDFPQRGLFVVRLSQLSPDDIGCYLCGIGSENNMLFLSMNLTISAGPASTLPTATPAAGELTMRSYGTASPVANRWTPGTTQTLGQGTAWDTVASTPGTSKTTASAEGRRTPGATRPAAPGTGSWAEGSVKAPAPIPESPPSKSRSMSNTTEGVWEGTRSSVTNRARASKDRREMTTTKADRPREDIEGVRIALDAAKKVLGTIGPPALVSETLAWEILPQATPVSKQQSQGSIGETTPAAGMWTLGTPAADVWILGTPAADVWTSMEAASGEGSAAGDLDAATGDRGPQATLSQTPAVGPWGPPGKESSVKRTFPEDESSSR
# B1: [(A2014)2-(IgD hinge region)2-(IgM Fc region)]6-(J chain)0 (Fc fusion)
# heavy: QVQLQQSGPGLLKPSQTLSLTCAISGDSVSSNRAAWNWIRQSPSRGLEWLGRTYYRSKWYNDYAVSVQGRITLIPDTSKNQFSLRLNSVTPEDTAVYYCASVRAVAPFDYWGQGVLVTVSSASTKGPSVFPLAPSSKSTSGGTAALGCLVKDYFPEPVTVSWNSGALTSGVHTFPAVLQSSGLYSLSSVVTVPSSSLGTQTYICNVNHKPSNTKVDKKVEPKSCRNTGRGGEEKKKEKEKEEQEERETKTPECPSHTQPLGVIAELPPKVSVFVPPRDGFFGNPRKSKLICQATGFSPRQIQVSWLREGKQVGSGVTTDQVQAEAKESGPTTYKVTSTLTIKESDWLSQSMFTCRVDHRGLTFQQNASSMCVPDQDTAIRVFAIPPSFASIFLTKSTKLTCLVTDLTTYDSVTISWTRQNGEAVKTHTNISESHPNATFSAVGEASICEDDWNSGERFTCTVTHTDLPSPLKQTISRPKGVALHRPDVYLLPPAREQLNLRESATITCLVTGFSPADVFVQWMQRGQPLSPEKYVTSAPMPEPQAPGRYFAHSILTVSEEEWNTGETYTCVVAHEALPNRVTERTVDKSTGKPTLYNVSLVMSDTAGTCY
# light: not shown
# B2: (A2014)2-(IgG Fc region) (antibody, V domains shown)
# VH: QVQLQQSGPGLLKPSQTLSLTCAISGDSVSSNRAAWNWIRQSPSRGLEWLGRTYYRSKWYNDYAVSVQGRITLIPDTSKNQFSLRLNSVTPEDTAVYYCASVRAVAPFDYWGQGVLVTVSS
# VL: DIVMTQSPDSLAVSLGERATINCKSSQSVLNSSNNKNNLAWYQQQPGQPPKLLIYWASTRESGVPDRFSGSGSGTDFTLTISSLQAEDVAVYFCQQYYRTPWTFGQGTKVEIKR
# notes: also called (A2014)-(IgG Fc); (A2014)-(IgGFc) control protein
# B3: [(CMVpHLA)2-(linker)2-(IgG Fc region)-(IgM Fc region)]5-(J chain D105K) (Fc fusion)
# chain (part 1 of 2): […]
# chain (part 2 of 2): QDTAIRVFAIPPSFASIFLTKSTKLTCLVTDLTTYDSVTISWTRQNGEAVKTHTNISESHPNATFSAVGEASICEDDWNSGERFTCTVTHTDLPSPLKQTISRPKGVALHRPDVYLLPPAREQLNLRESATITCLVTGFSPADVFVQWMQRGQPLSPEKYVTSAPMPEPQAPGRYFAHSILTVSEEEWNTGETYTCVVAHEALPNRVTERTVDKSTGKPTLYNVSLVMSDTAGTCY
# chain: […]
# notes: not shown: IgG Fc
# B4: [(CMVpHLA)2-(linker)2-(IgG Fc region)-(IgM Fc region)]5-(J chain N107F) (Fc fusion)
# chain (part 1 of 2): […]
# chain (part 2 of 2): B3 chain (part 2 of 2)
# chain: […]
# notes: not shown: IgG Fc
# B5: [(CMVpHLA)2-(linker)2-(IgG Fc region)-(IgM Fc region)]5-(J chain R106A) (Fc fusion)
# chain (part 1 of 2): […]
# chain (part 2 of 2): B3 chain (part 2 of 2)
# chain: […]
# notes: not shown: IgG Fc
# B6: [(CMVpHLA)2-(linker)2-(IgG Fc region)-(IgM Fc region)]5-(J chain R106Q) (Fc fusion)
# chain (part 1 of 2): […]
# chain (part 2 of 2): B3 chain (part 2 of 2)
# chain: […]
# notes: not shown: IgG Fc
# B7: [(CMVpHLA)2-(linker)2-(IgG Fc region)-(IgM Fc region)]5-(J chain R106V) (Fc fusion)
# chain (part 1 of 2): […]
# chain (part 2 of 2): B3 chain (part 2 of 2)
# chain: […]
# notes: not shown: IgG Fc
# Experiments:
# HLA-G protein antigen [1] = molecular target: T2, HLA-G protein antigen (human, UniProt P17693 25-308); experiment: SPR according to Example 1-4-1; HLA-G antigen
# T2 construct: also called HLA-G antigen
# HLA-G protein antigen [2] = molecular target: T2, HLA-G protein antigen; experiment: ELISA according to Example 1-4-1
# HLA-G protein antigen [3] = molecular target: T2, HLA-G protein antigen; experiment: ELISA on HLA-G antigen, according to Example 1-4-1
# [4] = molecular target: T3, HLA-G-6× his tag (IMBiologics) (human, UniProt P17693 25-308); experiment: blocking ELISA: ILT-2 antigen coated at 150 ng/well, HLA-G-6× his added with the dilution, detection HRP anti-6× his; blocked ligand ILT-2
# T3 construct: also called recombinant HLA-G protein
# [5] = molecular target: T3, HLA-G-6× his tag (IMBiologics); experiment: as above; remark: listed apart in the source
# [6] = molecular target: T4, HLA-G naturally expressed on JEG-3 cells (human, UniProt P17693 25-338); experiment: flow cytometry on JEG-3 cells that naturally express HLA-G; detection anti-IgM-PE or anti-IgG Fc-FITC; MFI
# T4 construct: whole, on cells; also called HLA-G expressing cells; HLA-G receptor in the cell
# [7] = molecular target: T1, Fcα/µ receptor (R&D systems); experiment: ELISA, Fcα/µ receptor coated at 100 ng/well; detection HRP anti-IgM (F5µ)
# [8] = molecular target: T5, pIgR (polymeric Ig receptor; R&D systems) (UniProt P01833 19-638); experiment: ELISA, pIgR coated at 100 ng/well; detection HRP anti-IgM (F5µ)
# T5 construct: also called pIg receptor
# T5 sequence (P01833 19-638 limits assumed): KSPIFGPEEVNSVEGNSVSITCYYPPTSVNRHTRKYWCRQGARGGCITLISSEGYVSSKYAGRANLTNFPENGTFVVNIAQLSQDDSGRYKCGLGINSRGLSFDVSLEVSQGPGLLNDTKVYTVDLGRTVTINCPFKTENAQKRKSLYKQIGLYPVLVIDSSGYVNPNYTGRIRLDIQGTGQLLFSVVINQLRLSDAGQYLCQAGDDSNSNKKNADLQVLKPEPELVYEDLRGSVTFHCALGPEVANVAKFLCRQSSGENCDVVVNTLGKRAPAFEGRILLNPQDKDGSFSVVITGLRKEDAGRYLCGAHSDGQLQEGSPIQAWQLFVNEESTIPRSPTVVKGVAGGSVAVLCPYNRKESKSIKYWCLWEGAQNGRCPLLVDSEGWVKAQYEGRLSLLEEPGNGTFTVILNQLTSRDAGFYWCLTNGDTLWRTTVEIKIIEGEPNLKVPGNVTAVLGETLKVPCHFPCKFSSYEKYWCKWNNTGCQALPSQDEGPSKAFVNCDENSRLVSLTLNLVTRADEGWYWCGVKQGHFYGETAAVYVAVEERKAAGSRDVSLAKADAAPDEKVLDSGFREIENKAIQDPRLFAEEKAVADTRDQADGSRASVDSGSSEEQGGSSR
binder,measurement,setting,value
B1,Kd,HLA-G protein antigen [1],0.00232 nM
same,koff,HLA-G protein antigen [1],3.51e-05 s⁻¹
same,kon,HLA-G protein antigen [1],1.48e+07 M⁻¹ s⁻¹
same,fold improvement of EC50 against the (A2014)-(IgGFc) control protein,HLA-G protein antigen [2],≥ 1000 fold
same,EC50 (read off the curve),HLA-G protein antigen [3],~0.04 nM
B2,Kd,HLA-G protein antigen [1],0.0259 nM
same,koff,HLA-G protein antigen [1],0.000305 s⁻¹
same,kon,HLA-G protein antigen [1],1.18e+07 M⁻¹ s⁻¹
same,IC50 (read off the curve),[4],~8 nM
same,IC50 (read off the curve),[5],~30 nM
same,EC50 (read off the curve),[6],~0.7 nM
B3,binding result,[7],no binding
B4,binding result,[7],no binding
B5,binding result,[7],no binding
B6,binding result,[7],no binding
B7,binding result,[8],no binding
